{"source": "patent US7799901B2", "about": "“Modulators of the function of FAS receptors and other proteins” (Yeda Research and Development Co. Ltd., priority 1995, dated 2010)", "molecules": {"B1": {"name": "fragment corresponding to residues 130-245: C-terminal part of MORT-1 containing its death domain homology region, amino acids 130-245 (protein)", "chain": "FEAGAAAGAAPGEEDLCAAFNVICDNVGKDWRRLARQLKVSDTKIDSIEDRYPRNLTERVRESLRIWKNTEKENATVAHLVGALRSCQMNLVADLVQEVQQARDLQNRSGAMSPMS"}, "B2": {"name": "MORT1 (92-208) (protein, UniProt Q13158 92-208, looked up, fragment)", "chain": "PGEEDLCAAFNVICDNVGKDWRRLARQLKVSDTKIDSIEDRYPRNLTERVRESLRIWKNTEKENATVAHLVGALRSCQMNLVADLVQEVQQARDLQNRSGAMSPMSWNSDASTSEAS"}, "B3": {"name": "MACHα2: MACH isoform, cDNA SEQ ID NO: 17, amino acid SEQ ID NO: 18 (protein)", "chain": "MDFSRNLYDIGEQLDSEDLASLKFLSLDYIPQRKQEPIKDALMLFQRLQEKRMLEESNLSFLKELLFRINRLDLLITYLNTRKEEMERELQTPGRAQISAYRVMLYQISEEVSRSELRSFKFLLQEEISKCKLDDDMNLLDIFIEMEKRVILGEGKLDILKRVCAQINKSLLKIINDYEEFSKGEELCGVMTISDSPREQDSESQTLDKVYQMKSKPRGYCLIINNHNFAKAREKVPKLHSIRDRNGTHLDAGALTTTFEELHFEIKPHDDCTVEQIYEILKIYQLMDHSNMDCFICCILSHGDKGIIYGTDGQEAPIYELTSQFTGLKCPSLAGKPKVFFIQACQGDNYQKGIPVETDSEEQPYLEMDLSSPQTRYIPDEADFLLGMATVNNCVSYRNPAEGTWYIQSLCQSLRERCPRGDDILTILTEVNYEVSNKDDKKNMGKQMPQPTFTLRKKLVFPSD"}}, "key": {"MORT-1": {"biological_target": "T1, MORT-1 (Homo sapiens, UniProt Q13158, G32V)", "T1 sequence (Q13158 with tags, fused parts or gaps G32V)": "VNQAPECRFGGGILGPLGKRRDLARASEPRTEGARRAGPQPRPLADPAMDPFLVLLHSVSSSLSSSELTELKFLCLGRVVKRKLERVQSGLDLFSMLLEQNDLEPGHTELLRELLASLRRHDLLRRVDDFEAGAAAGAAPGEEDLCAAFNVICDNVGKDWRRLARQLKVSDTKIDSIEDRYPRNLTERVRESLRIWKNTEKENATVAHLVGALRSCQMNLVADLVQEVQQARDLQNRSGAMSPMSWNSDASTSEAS", "assay": "Two-hybrid test (FIG. 1), binding to full-length MORT-1", "design": "expressed in transfected cells; host or cells: SFY526 yeast", "excerpt": "(§1) To isolate proteins interacting with the intracellular domain of the FAS-R, the yeast two-hybrid system was used (Fields and Song, 1989). […] In this system, the genes for the candidate interacting proteins are cloned into separate expression vectors. In one expression vector, the sequence of the one candidate protein is cloned in phase with the sequence of the GAL4 DNA-binding domain to generate a hybrid protein with the GAL4 DNA-binding-domain, and in the other vector, the sequence of the second candidate protein is cloned in phase with the sequence of the GAL4 activation domain to generate a hybrid protein with the GAL4-activation domain. The two hybrid vectors are then co-transformed into a yeast host strain having a lacZ or HIS3 reporter gene under the control of upstream GAL4 binding sites. Only those transformed host cells (cotransformants) in which the two hybrid proteins are expressed and are capable of interacting with each other, will be capable of expressing the reporter gene. In the case of the lacZ reporter gene, host cells expressing this gene will become blue in color when X-gal is added to the cultures.\n(b) retransforming the plasmid DNA and original FAS-IC hybrid plasmid and control plasmids described in (a) into yeast host cells of strain SFY526 and determining the LACZ^+ activity (effectivity of β-gal formation, i.e., blue color formation).\nIn FIG. 1, there is depicted the interaction of the proteins encoded by the Gal4 DNA binding domain and activation-domain constructs (pGBT9 and pGAD-GH) within transfected SFY526 yeasts as assessed by β-galactosidase expression filter assay. The DNA-binding-domain constructs included four constructs of the human Fas-IC, four constructs of the mouse Fas-IC including two full-length constructs having […] or Ile to Ala replacement mutations at position 225 (I225N and I225A, respectively), and three MORT-1 constructs, all of which are shown schematically on the left hand side of FIG. 1. […]"}, "[1]": {"tested_on": "FAS-R mediated cell death in HeLa cells", "assay": "Anti-FAS-R antibody (CH-11) induced death of HeLa cells co-expressing FAS-R, neutral-red uptake", "assay_type": "cell-based", "details": "co-expression with human FAS-R in HeLa HtTA-1; CH-11 antibody plus 10 μg/ml cycloheximide", "excerpt": "In another set of experiments to analyze the region of the MORT-1 protein involved in the binding to the FAS-IC, the following proteins were expressed transiently in HeLa cells that contain a tetracycline-controlled transactivator (HtTA-1), using a tetracycline-controlled expression vector (pUHD10-3): Human FAS-R alone; Human FAS-R as well as the N-terminal part of MORT-1 (amino acids 1-117, the “MORT-1 head”); Human FAS-R as well as the C-terminal part of MORT-1, which contains its ‘death domain’ homology region (amino acids 130-245, the “MORT-1 DD”); FLAG-55.11 (amino acids 309-900 of protein 55.11 fused at the N-terminus to the FLAG octapeptide, the protein 55.11 being a p55-IC-specific binding protein. Twelve hours after transfection, the cells were trypsinized and re-seeded at a concentration of 30,000 cells/well. After 24 hrs further incubation, the cells were treated for 6 hrs with a monoclonal antibody against the extracellular domain of FAS-R (monoclonal antibody CH-11, Oncor, Gaithersburg, Md., USA) at various concentrations (0.001-10 μg/ml monoclonal antibody), in the presence of 10 μg/ml cycloheximide. Cell viability was then determined by the neutral-red uptake assay and the results were presented in terms of % viable cells as compared to cells that had been incubated with cycloheximide alone (in the absence of anti-FAS-R monoclonal antibody CH-11). […]"}, "FAS-IC": {"biological_target": "T2, FAS-IC (Homo sapiens, UniProt P25445)", "T2 construct": "the FAS-IC extends-from amino acid residues 175-319 of the intact FAS-R; expressed in transfected cells; host or cells: SFY526 yeast", "T2 sequence (P25445 191-335)": "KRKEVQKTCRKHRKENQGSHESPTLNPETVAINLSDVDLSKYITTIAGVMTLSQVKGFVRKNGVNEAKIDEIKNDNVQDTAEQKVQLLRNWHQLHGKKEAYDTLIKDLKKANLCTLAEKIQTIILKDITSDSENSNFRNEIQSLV", "assay": "Two-hybrid test (FIG. 1), binding of MORT-1 fragments to FAS-IC", "excerpt": "as §1, with “cultures. […]” for “cultures.”\nIn FIG. 1, there is depicted the interaction of the proteins encoded by the Gal4 DNA binding domain and activation-domain constructs (pGBT9 and pGAD-GH) within transfected SFY526 yeasts as assessed by β-galactosidase expression filter assay. […]"}, "[2]": {"tested_on": "Fas/APO1-induced death of HeLa cells", "assay": "Death of HeLa cells expressing Fas/APO1 induced by anti-Fas/APO1 antibody and cycloheximide", "assay_type": "cell-based, human", "details": "HeLa cells transiently expressing Fas/APO1, CH11 0.5 μg/ml, cycloheximide 10 μg/ml", "method": "(§2) In brief, 293-EBNA cells, MCF7 human breast carcinoma cells and HeLa HtTA-1 cells were grown in Dulbecco's modified Eagle's minimal essential medium supplemented with 10% fetal calf serum, nonessential amino acids, 100 U/ml penicillin and 100 μg/ml streptomycin. Cell tissue culture dishes (5×10^5 293-EBNA cells, 3×10^5 s MCF7 cells or 3×10^5 HeLa cells in 6-cm dishes) were transiently transfected, using the calcium phosphate precipitation method, with the cDNAs of the indicated proteins together with the β-galactosidase expression vector. In the experiments presented in FIGS. 14A-D and 15, each dish was transfected with 3.5 μg of the indicated MACH construct and 1.5 μg of pSV-β-gal. In the experiments presented in FIGS. 16A-D and 17-19, each dish was transfected with 2.5 μg of the indicated MACH or MORT1 construct (or, as control, empty vector) and 1.5 μg of pSV-β-gal. The cells were rinsed 6 to 10 h after transfection. The 293-EBNA and MCF7 cells were incubated for a further 18 h without additional treatment. The HeLa cells were incubated for 26 h after transfection and-then for 5 h in the presence of either anti-Fas.APO1 antibody (CH11, 0.5 μg/ml) or TNF (100 ng/ml), together with cycloheximide (10 μg/ml). The extent of cell death at the end of the incubation periods was assessed by determination of β-galactosidase expression, as described by Kumar et al, 1994.\nThe HeLa cells were made responsive to Fas/APO1 by transient expression of this receptor. […] These protective effects indicate that MACHα is a necessary component of both the Fas/APO1- and the p55-R-induced signaling cascades for cell death.\n(§3) In particular, FIGS. 16A-D show morphology of 293-EBNA cells in which cell death was induced by transient expression of a chimera comprised of the extracellular domain of the p55-R (amino acids 1-168) fused to the transmembrane and intracellular domains of Fas/APO1 (amino acids 153-319) (p55-Fas chimera) (FIGS. 16A and 16B), or by expression of the p55-R (FIGS. 16C and 16D), and of cells that were protected from these cytotoxic effects by their simultaneous transfection with MACHα1 (C360S) (FIGS. 16B and 16D). Photographs were taken 26 h after transfection. FIG. 17 illustrates the quantification of death induced in 293-EBNA cells by their transfection with p55-Fas chimera or with p55-R, together with an empty vector, a MORT1 deletion mutant lacking the MACH-binding region (MORT1 (92-208)), or MACHα molecules containing a nonfunctional CED3/ICE region. […] Data are from at least two independent experiments and are expressed as in FIGS. 14A-F and 15."}, "[3]": {"tested_on": "TNF-induced death of HeLa cells", "assay": "Death of HeLa cells induced by TNF and cycloheximide", "assay_type": "cell-based, human", "details": "TNF 100 ng/ml, cycloheximide 10 μg/ml", "method": "as §2, with “1994. […]” for “1994.”"}, "[4]": {"tested_on": "Fas/APO1 cytotoxicity (p55-Fas chimera) in 293-EBNA cells", "assay_type": "cell-based, human", "details": "co-transfection", "method": "as §2, with “The HeLa cells were incubated for 26 h after transfection and-then for 5 h in the presence of either anti-Fas.APO1 antibody (CH11, 0.5 μg/ml) or TNF (100 ng/ml), together with cycloheximide (10 μg/ml).” left out, “1994. […]” for “1994.”\nas §3, with “Photographs were taken 26 h after transfection.” left out"}, "[5]": {"tested_on": "p55-R-induced cytotoxicity in 293-EBNA cells", "assay": "Death of 293-EBNA cells induced by over-expression of p55-R", "assay_type": "cell-based, human", "details": "co-transfection", "method": "as §2, with “The HeLa cells were incubated for 26 h after transfection and-then for 5 h in the presence of either anti-Fas.APO1 antibody (CH11, 0.5 μg/ml) or TNF (100 ng/ml), together with cycloheximide (10 μg/ml).” left out, “1994. […]” for “1994.”\nas §3, with “Photographs were taken 26 h after transfection.” left out"}, "[6]": {"tested_on": "human embryonic kidney 293-EBNA cells", "assay": "Cell death on overexpression of MACH isoforms in 293-EBNA cells", "assay_type": "cell-based", "details": "β-galactosidase-expressing cells with apoptopic morphology, 20 h after transfection", "method": "To explore the involvement of MACH in cell-death induction, the effect of overexpression of various MACH isoforms on cell viability was examined. The test was performed by transfecting MACH expression vectors together with a β-galactosidase expression vector as a transfection marker into human embryonic kidney 293-EBNA cells and breast carcinoma MCF7 cells.\nas §2\nIn particular, FIGS. 14A-D show the morphology of human embryonic kidney 293-EBNA cells transiently expressing the indicated MACH isoforms. The arrows (FIG. 14B) point to apoptopic cells. Photographs were taken 26 h after transfection. […] Data are from three independent experiments with the 293-EBNA cells and two independent experiments with the MCF7 cells."}}, "data": [{"molecule": "B1", "values": [{"measurement": "binding to full-length MORT-1 in two-hybrid test", "setting": "MORT-1", "value": "does not bind"}, {"measurement": "effect on FAS-induced (FAS-R mediated) cell death", "setting": "[1]", "value": "strongly interferes"}, {"measurement": "binding to FAS-IC / FAS-R in two-hybrid test", "setting": "FAS-IC", "value": "binds"}]}, {"molecule": "B2", "values": [{"measurement": "protection against death induced by anti-Fas/APO1 antibody and cycloheximide", "setting": "[2]", "value": "protection was also observed"}, {"measurement": "protection against death induced by anti-Fas/APO1 antibody and cycloheximide", "setting": "[2]; listed as MORT1DD (92-208)", "value": "prevention"}, {"measurement": "protection against death induced by TNF and cycloheximide", "setting": "[3]", "value": "protection was also observed"}, {"measurement": "protection against Fas/APO1 cytotoxicity (p55-Fas chimera)", "setting": "[4]", "value": "protection was also observed"}, {"measurement": "protection against p55-R-induced cytotoxicity", "setting": "[5]", "value": "protection was also observed"}]}, {"molecule": "B3", "values": [{"measurement": "cell death of transfected 293-EBNA cells", "setting": "[6]", "value": "massive cell death"}]}]}
